From US20240069022A1 (ASAHI KASEI, published 2024) come the findings set out here.

The target of assay [1] is T1, ribosome protein L7/L12 of Pseudomonas aeruginosa, native, in bacterial lysate (Pseudomonas aeruginosa, UniProt Q9HWC8 1-122).
T1 construct: also called PA; P. aeruginosa lysate
T1 sequence: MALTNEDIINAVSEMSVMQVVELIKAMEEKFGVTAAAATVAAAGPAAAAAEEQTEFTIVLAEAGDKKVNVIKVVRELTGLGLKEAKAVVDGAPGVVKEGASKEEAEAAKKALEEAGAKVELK
Nature of the assay: ELISA, bacterial lysate coated.
From the text: (§1) The thus-produced Specific Antibodies A to C (antibodies of the present invention) and Generic Antibodies A and B were used to obtain data on the reactivity with plural genera of Enterobacteriaceae bacteria and bacteria other than Enterobacteriaceae (non-Enterobacteriaceae bacteria) by means of ELISA. […] The seven species of Enterobacteriaceae bacteria and four species of non-Enterobacteriaceae bacteria described above were purchased and cultured from ATCC, prepared at 1×e⁸ cfu/mL each, and suspended in PBS. Each bacterium was lysed by sonication, and debris was removed by filtration through a filter with a 0.45-μm mesh opening to obtain the bacterial lysate of each bacterium.
(§2) 50 μL of the above bacterial lysate was dropped into each well of a 96-well polystyrene plate for ELISA and solidified on the bottom of the plate. After washing each well three times with PBS-T (PBS with Tween 20), blocking treatment was performed with PBS containing 1% BSA (Bovine Serum Albumin). After blocking, the wells were washed three times with PBS-T, and 50 μL of 10 μg/mL solution of each of the Specific Antibodies A to C and Generic Antibodies A and B was dropped into each well for 1 hour for antigen-antibody reactions. After the reactions, the samples were washed three times with PBS-T, and then 0.5 μg/mL of HRP (Horse Radish Peroxidase) labeled secondary antibody (Goat Anti-mouse IgG: Goat Anti-mouse IgG), which is the enzyme for detection, was added dropwise. After the reaction, the wells were washed five times with PBS-T, and 100 μL of a mixture of tetramethylbenzidine (TMB) and hydrogen peroxide, the chromogenic substrate, was added dropwise to each well for the chromogenic reaction.

The target of assay [2] is T2, recombinant ribosomal protein L7/L12 of Pseudomonas aeruginosa, tag fusion protein (Pseudomonas aeruginosa, UniProt Q9HWC8 1-122).
T2 sequence: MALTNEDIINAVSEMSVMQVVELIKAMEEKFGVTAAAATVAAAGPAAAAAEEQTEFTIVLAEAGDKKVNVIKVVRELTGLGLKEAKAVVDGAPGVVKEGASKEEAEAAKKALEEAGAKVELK
Nature of the assay: ELISA, recombinant L7/L12 (10 ng/mL) coated. (In general: ELISA stands for enzyme-linked immunosorbent assay.)
From the text: (§3) The thus-produced Specific Antibodies A to C (antibodies of the present invention) and Generic Antibodies A and B were used to obtain data on the reactivity with ribosome protein L7/L12 of plural genera of Enterobacteriaceae bacteria by means of ELISA. Seven species of Enterobacteriaceae bacteria were selected for the study: Escherichia coli (EC), Klebsiella pneumoniae (KP), Citrobacter freundii (CF), Enterobacter cloacae (ECL), Proteus mirabilis (PM), Salmonella enterica (SE), and Serratia liquefaciens (SL), which are frequently detected in food, beverage, environmental, or biological samples. Four species of bacteria other than Enterobacteriaceae (non-Enterobacteriaceae bacteria) were also selected for the study: Pseudomonas aeruginosa (PA), Staphylococcus aureus (SA), Bacillus subtilis (BS), and Enterococcus faecalis (EF), which are frequently detected in food, beverage, environmental, or biological samples. E. coli transformed with expression vectors incorporating DNA encoding the amino acid sequence of ribosomal protein L7/L12 of each of the above seven Enterobacteriaceae and four non-Enterobacteriaceae species were cultured using, e.g., LB medium, and the ribosomal protein L7/L12 was purified as a fusion protein by affinity columns using tag sequences derived from the expression vector.
(§4) 50 μL of 10 ng/mL solution of the ribosomal protein L7/L12 of each bacterial species was dropped into each well of a 96-well polystyrene plate for ELISA and solidified on the bottom of the plate. After washing each well three times with PBS-T (PBS with Tween 20), blocking treatment was performed with PBS containing 1% BSA (Bovine Serum Albumin). After blocking, the wells were washed three times with PBS-T, and 50 µL of 10 μg/mL solution of each of the Specific Antibodies A to C and Generic Antibodies A and B was dropped into each well for 1 hour for antigen-antibody reactions. After the reactions, the samples were washed three times with PBS-T, and then 0.5 μg/mL of HRP (Horse Radish Peroxidase) labeled secondary antibody (Goat Anti-mouse IgG: Goat Anti-mouse IgG), which is the enzyme for detection, was added dropwise. After the reaction, the wells were washed five times with PBS-T, and 100 μL of a mixture of tetramethylbenzidine (TMB) and hydrogen peroxide, the chromogenic substrate, was added dropwise to each well for the chromogenic reaction.

The target in assay [3] is T3, recombinant ribosomal protein L7/L12 of Bacillus subtilis, tag fusion protein (Bacillus subtilis, UniProt P02394 1-123).
T3 sequence: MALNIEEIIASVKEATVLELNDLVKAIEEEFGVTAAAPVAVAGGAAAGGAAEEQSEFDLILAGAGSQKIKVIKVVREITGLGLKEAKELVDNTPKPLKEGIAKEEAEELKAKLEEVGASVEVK
Briefly: ELISA, recombinant L7/L12 (10 ng/mL) coated.
From the text: as §3, §4

The target in assay [4] is recombinant ribosomal protein L7/L12 of Escherichia coli, tag fusion protein (Escherichia coli, UniProt P0A7K2 1-121). Nature of the assay: ELISA, recombinant L7/L12 coated, antibody 10 ug/mL; +: A450 >=0.3.
recombinant ribosomal protein L7/L12 of Escherichia coli, tag fusion protein, sequence (P0A7K2 whole entry, the tested form may be a part): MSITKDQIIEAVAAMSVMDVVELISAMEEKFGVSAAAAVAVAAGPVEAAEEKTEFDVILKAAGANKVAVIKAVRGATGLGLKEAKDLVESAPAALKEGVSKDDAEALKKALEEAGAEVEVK
From the text: as §3, §4
The target in assay [5] is T4, ribosome protein L7/L12 of Bacillus subtilis, native, in bacterial lysate (Bacillus subtilis, UniProt P02394 2-123).
T4 construct: also called BS; B. subtilis lysate
T4 sequence: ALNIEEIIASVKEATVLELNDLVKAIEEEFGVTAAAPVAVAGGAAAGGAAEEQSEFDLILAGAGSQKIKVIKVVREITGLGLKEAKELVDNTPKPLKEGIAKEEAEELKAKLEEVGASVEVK
Briefly: lateral-flow sandwich kit (a) on lysate; capture Specific Antibody A, gold-labelled detection Generic Antibody A.

Assay [6] deals with T4, ribosome protein L7/L12 of Bacillus …. Briefly: ELISA, bacterial lysate coated.
From the text: as §1, §2

B1: Specific Antibody A (EC50C1) (antibody, V domains shown)
VH: QVQLQQSGAELAKPGASVKMSCKASGYTFTSYWMNWVKQRPGQGLEWIGYINPNTGYTEYDQKFKDKATLTADKSSSTAYMQLSSLTSEDSAVYYCARYWAYFEYWGQGTTLTVSS
VL: DIKMTQSPSSMYASLGERVTITCKASQDINSYLSWFQQKPGKSPKTLIYRANRLVDGVPSRFSGSGSGQDYSLTISSLEYEDMGIYYCLQYDEFRTFGGGTKLEIK
For B1, the binding result in assay [1] is listed as “no binding (tested: Absorbance <0.3 at 10 ug/mL antibody)”; in assay [2] it was “no binding (tested: Absorbance <0.3 at 10 ug/mL antibody)”; in assay [3] it was “no binding (tested: Absorbance <0.3 at 10 ug/mL antibody)”; in assay [4], “binds”; in assay [5], “no binding (tested: Visually negative)”.

B2: Specific Antibody B (EC149C3) (antibody, V domains shown)
VH: QVQLQQSGAELVKPGASVKLSCKASDYTFTNFYIYWVKQRPGQGLEWIGEINPSNGYTTFNVKFKSKATLTVDKSSSTAYMQLSSLTSEDSAVYYCTRNYGGSRCAYWGQGTLVTVSA
VL: DVLMTQTPLSLPVSLGDQASISCRSSQSIVHSNGNTYLEWYLQKPGQSPKLLIYKVSNRFSGVPDRFSGSGSGTDFTLKISRVEAEDLGVYYCFQGSHVPWTFGGGTKLEIK
For B2, the binding result in assay [1], in assay [6], in assay [2] and in assay [3] was “no binding (tested: Absorbance <0.3 at 10 ug/mL antibody)” throughout.

B3: Generic Antibody A (PA51B2) (antibody, V domains shown)
VH: QVQLQQPGSVLVRPGASVKLSCKPSGYTFTGSWMHWTKQRPGQGLEWIGEIHPYSGNTNYNEKFRVKATLTVDTSSSTTYVDLSSLTSDDSAVYYCASGDFDAGFTYWGQGTLVTVSA
VL: DIVLTQSPASLAVSLGRRATISCKASQSVDYDGDSYMNWYQQKPGQPPKLLIYVASNLESGIPARFSGSGSGTDFTLNIHPVEEEDAATYYCQQTNEDPFTFGAGTKLELK
Consider B3, for which the binding result in assay [4] is listed as “binds”.

B4: Specific Antibody C (EC162A3) (antibody, V domains shown)
VH: QVQLQQSGTELAKPGASVQMSCKASGYTFTSYWMHWVKQRPGQGLEWIGYINPNTGYTEYNQQFKDKATLTADKSSSTAYMQLSSLTSEDSAVYYCANYFAWFGYWGQGTLVTVSA
VL: DIKMTQSPSSMYASLGERVTVTCKASQDIYSYLNWFQQKPGKSPKTLIYRANRLVDGVPSRFSGSGSGQEYSLTISSLEHEDMGIYYCLQHDQHPYTFGSGTKLEIK
In the case of B4, the binding result is recorded as “no binding (tested: Absorbance <0.3 at 10 ug/mL antibody)” in assay [1]; “no binding (tested: Absorbance <0.3 at 10 ug/mL antibody)” in assay [6]; “no binding (tested: Absorbance <0.3 at 10 ug/mL antibody)” in assay [2]; “no binding (tested: Absorbance <0.3 at 10 ug/mL antibody)” in assay [3]; “binds” in assay [4].

B5: Generic Antibody B (CP141A190.1) (antibody, V domains shown)
VH: QVQLQQPGAELVKPGASVKLSCKTSGYNFTSNWIHWVKQRPGQGLEWIGEINPSNGRANYNEKFKNKATLTVDKSSSTAFMHLSSLTSEDSAVYFCSRGDFDEGFTYWGQGTLVTVSA
VL: QIVLTQSPAIMSASLGERVTMTCTASSNVNSDYLHWYQQKPGSSPRLWIYTTSNLASGVPTRFSGNGSGTSYSLTISSMEAEDAATYYCHQYHRSPRTFGGGTKLEIK
For B5, the binding result in assay [4] is listed as “binds”.
